Columns and labels:
[1] = target: T1, human ROR1 expressed on cells (MDA-MB-231, Jeko-1, PA-1, HCC1187) (human, UniProt Q01973 30-937); assay: cell-based or functional assay
[2] = target: T2, human ROR1 protein (recombinant ROR1 antigen, Kactus Biosystems) (human, UniProt Q01973 30-406, limits assumed); assay: BLI (Octet R8), antibody captured on AHC sensor, ROR1 antigen as analyte
[3] = target: human ROR2 protein (hROR2, Kactus Biosystems, Cat. No. ROR-HM402) (human, UniProt Q01974 34-403, limits assumed); assay: ELISA, plate coated with hROR2
Chain of human ROR2 protein (hROR2, Kactus Biosystems, Cat. No. ROR-HM402) (Q01974 34-403 limits assumed): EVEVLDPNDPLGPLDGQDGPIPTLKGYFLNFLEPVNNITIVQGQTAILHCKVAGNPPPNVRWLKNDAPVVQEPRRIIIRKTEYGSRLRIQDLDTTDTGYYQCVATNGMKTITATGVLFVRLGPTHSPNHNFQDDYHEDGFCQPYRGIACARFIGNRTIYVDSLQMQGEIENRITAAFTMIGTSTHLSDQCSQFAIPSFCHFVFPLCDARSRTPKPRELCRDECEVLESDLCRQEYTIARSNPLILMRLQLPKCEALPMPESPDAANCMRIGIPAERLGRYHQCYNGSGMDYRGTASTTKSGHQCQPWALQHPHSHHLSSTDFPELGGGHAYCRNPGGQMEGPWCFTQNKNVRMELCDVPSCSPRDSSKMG

[4] = target: T1, human ROR1 expressed on cells …; assay: flow cytometry on MDA-MB-231 cells
[5] = target: T2, human ROR1 protein (recombinant ROR1 …); assay: binding to ROR1 (column 'Binding to ROR1'; method not described)

T2 sequence (Q01973 30-406 limits assumed): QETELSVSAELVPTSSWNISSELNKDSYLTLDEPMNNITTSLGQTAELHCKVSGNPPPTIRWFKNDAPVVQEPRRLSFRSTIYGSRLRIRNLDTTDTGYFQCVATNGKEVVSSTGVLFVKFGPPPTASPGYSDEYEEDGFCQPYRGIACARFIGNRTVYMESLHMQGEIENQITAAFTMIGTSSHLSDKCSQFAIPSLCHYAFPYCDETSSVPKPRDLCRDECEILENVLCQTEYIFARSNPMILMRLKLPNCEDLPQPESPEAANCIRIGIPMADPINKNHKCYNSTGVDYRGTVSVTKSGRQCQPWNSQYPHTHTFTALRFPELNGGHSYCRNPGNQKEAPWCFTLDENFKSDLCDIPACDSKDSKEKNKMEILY
T1 sequence (Q01973 30-937 limits assumed): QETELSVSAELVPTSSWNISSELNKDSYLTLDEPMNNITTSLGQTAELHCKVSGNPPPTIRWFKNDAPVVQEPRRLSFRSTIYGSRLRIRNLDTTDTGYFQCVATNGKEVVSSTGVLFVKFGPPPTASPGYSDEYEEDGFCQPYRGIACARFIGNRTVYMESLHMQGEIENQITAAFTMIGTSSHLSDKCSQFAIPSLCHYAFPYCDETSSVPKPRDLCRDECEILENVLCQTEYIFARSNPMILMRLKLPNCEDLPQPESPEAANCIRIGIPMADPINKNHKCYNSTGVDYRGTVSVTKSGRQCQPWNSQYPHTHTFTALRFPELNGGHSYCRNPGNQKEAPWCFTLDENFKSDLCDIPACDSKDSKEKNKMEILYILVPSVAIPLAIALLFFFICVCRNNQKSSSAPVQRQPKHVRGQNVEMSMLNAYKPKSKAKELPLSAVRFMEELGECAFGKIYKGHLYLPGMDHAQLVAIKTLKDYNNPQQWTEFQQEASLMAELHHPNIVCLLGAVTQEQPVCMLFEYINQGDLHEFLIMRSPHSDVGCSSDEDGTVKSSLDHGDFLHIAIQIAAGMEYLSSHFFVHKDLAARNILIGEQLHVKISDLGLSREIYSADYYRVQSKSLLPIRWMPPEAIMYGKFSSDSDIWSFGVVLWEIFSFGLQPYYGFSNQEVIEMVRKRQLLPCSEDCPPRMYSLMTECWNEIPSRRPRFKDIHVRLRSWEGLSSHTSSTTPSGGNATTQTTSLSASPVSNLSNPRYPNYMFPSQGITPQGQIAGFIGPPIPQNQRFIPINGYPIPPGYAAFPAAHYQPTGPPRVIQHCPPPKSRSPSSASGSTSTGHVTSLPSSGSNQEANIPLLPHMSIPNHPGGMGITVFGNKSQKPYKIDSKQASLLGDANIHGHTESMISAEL

Binder	inhibitory IC50 against the proliferation of HCC1187 cells (CellTiterGlo2) [1] [nM]	inhibitory IC50 against the proliferation of Jeko1 cells (CellTiterGlo2) [1] [nM]	inhibitory IC50 against the proliferation of PA-1 cells (CellTiterGlo2) [1] [nM]	Kd [2] [nM]	binding result [3]	EC50 [4] [µg/mL]	EC50 [5] [µg/mL]
ADC-5 (AM3-ZH3 conjugated to LD-1) (antibody, human IgG1, kappa, V domains shown, linker-drug LD-1 (MMAE) on cysteine sulfhydryls of reduced disulfides; average DAR between 3.7 and 4.3) VH: EVQLVESGGGLVQPGGSLRLSCAASGFTFSSYPMSWVRQAPGKGLEWVSSISTGASAYFPDSVKGRFTISRDNAKNSLYLQMNSLRAEDTAVYYCARITTSTWYMDVWGQGTTVTVSS VL: DIQMTQSPSAMSASVGDRVTITCKASQDIYSYLSWFQQKPGKVPKTLIYRANRLVRGVPSRFSGSGSGQEYTLTISSLQPEDMATYYCLQYDEFPYTFGQGTKLEIKR	6.3	65.1	17.8				
ADC-2 (AM3-ZH3 conjugated to LD-14) (antibody, human IgG1, kappa, V domains shown, linker-drug LD-14 (eribulin) on cysteine sulfhydryls of reduced disulfides; average DAR between 3.7 and 4.3) VH: EVQLVESGGGLVQPGGSLRLSCAASGFTFSSYPMSWVRQAPGKGLEWVSSISTGASAYFPDSVKGRFTISRDNAKNSLYLQMNSLRAEDTAVYYCARITTSTWYMDVWGQGTTVTVSS VL: DIQMTQSPSAMSASVGDRVTITCKASQDIYSYLSWFQQKPGKVPKTLIYRANRLVRGVPSRFSGSGSGQEYTLTISSLQPEDMATYYCLQYDEFPYTFGQGTKLEIKR	0.09	0.285	0.017				
AM3-ZH7 (antibody, human IgG1, kappa, V domains shown) VH: EVQLVESGGGLVQPGGSLRLSCAASGFTFSSYAMSWVRQAPGKGLEWVSSISTGASAYFPDSVKGRFTISRDNAKNSLYLQMNSLRAEDTAVYYCARITTSTWYMDVWGQGTTVTVSS VL: DIQMTQSPSAMSASVGDRVTITCKASQDIYSYLSWFQQKPGKVPKTLIYRANRLVRGVPSRFSGSGSGQEYTLTISSLQPEDMATYYCLQYDEFPYTFGQGTKLEIKR				8.5	no binding (tested: starting from 333.33 nM)	0.0101	0.0115
AM3-ZH6 (antibody, human IgG1, kappa, V domains shown) VH: EVQLVESGGGLVQPGGSLRLSCAASGFTFSSYAMSWVRQAPGKGLEWVSSISTGASAYFPDSVKGRFTISRDNAKNSLYLQMNSLRAEDTAVYYCARITTSTWYMDVWGQGTTVTVSS VL: DIQMTQSPSAMSASVGDRVTITCKASQDIYSYLSWFQQKPGKVPKTLIYRANRLVGGVPSRFSGSGSGQEYTLTISSLQPEDMATYYCLQYDEFPYTFGQGTKLEIKR				11	no binding (tested: starting from 333.33 nM)	0.013	0.012
AM3-ZH1 (antibody, human IgG1, kappa, V domains shown) VH: EVQLVESGGGLVQPGGSLRLSCAASGFTFSSYPMSWVRQAPGKGLEWVSSISTGASAYFPDSVKGRFTISRDNAKNSLYLQMNSLRAEDTAVYYCARYTTSTWYFDVWGQGTTVTVSS VL: DIQMTQSPSAMSASVGDRVTITCKASQDIYSYLSWFQQKPGKVPKTLIYRANRLVRGVPSRFSGSGSGQEYTLTISSLQPEDMATYYCLQYDEFPYTFGQGTKLEIKR				7.9	binds	0.0169	0.0127
AM3-ZH5 (antibody, human IgG1, kappa, V domains shown) VH: EVQLVESGGGLVQPGGSLRLSCAASGFTFSSYAMSWVRQAPGKGLEWVSSISTGASAYFPDSVKGRFTISRDNAKNSLYLQMNSLRAEDTAVYYCARITTSTWYMDVWGQGTTVTVSS VL: DIQMTQSPSAMSASVGDRVTITCKASQDIFSYLSWFQQKPGKVPKTLIYRANRLVSGVPSRFSGSGSGQEYTLTISSLQPEDMATYYCLQYDEFPYTFGQGTKLEIKR				10	no binding (tested: starting from 333.33 nM)	0.0148	0.0124
AM3-ZH4 (antibody, human IgG1, kappa, V domains shown) VH: EVQLVESGGGLVQPGGSLRLSCAASGFTFSSYAMSWVRQAPGKGLEWVSSISTGASAYFPDSVKGRFTISRDNAKNSLYLQMNSLRAEDTAVYYCARYTTSTWYHDVWGQGTTVTVSS VL: DIQMTQSPSAMSASVGDRVTITCKASQDIYSYLSWFQQKPGKVPKTLIYRANRLVRGVPSRFSGSGSGQEYTLTISSLQPEDMATYYCLQYDEFPYTFGQGTKLEIKR				27	no binding (tested: starting from 333.33 nM)	0.0163	0.0161
ADC-6 (UC961 conjugated to LD-14) (antibody, human IgG1, kappa, V domains shown, linker-drug LD-14 (eribulin) on cysteine sulfhydryls of reduced disulfides; drug loading 3.7-4.3 per antibody) VH: QVQLQESGPGLVKPSQTLSLTCTVSGYAFTAYNIHWVRQAPGQGLEWMGSFDPYDGGSSYNQKFKDRLTISKDTSKNQVVLTMTNMDPVDTATYYCARGWYYFDYWGHGTLVTVSS VL: DIVMTQTPLSLPVTPGEPASISCRASKSISKYLAWYQQKPGQAPRLLIYSGSTLQSGIPPRFSGSGYGTDFTLTINNIESEDAAYYFCQQHDESPYTFGEGTKVEIKR	0.24	2.08	0.36				
ADC-7 (UC961 conjugated to LD-1) (antibody, human IgG1, kappa, V domains shown, linker-drug LD-1 (MMAE) on cysteine sulfhydryls of reduced disulfides; drug loading 3.7-4.3 per antibody) VH: QVQLQESGPGLVKPSQTLSLTCTVSGYAFTAYNIHWVRQAPGQGLEWMGSFDPYDGGSSYNQKFKDRLTISKDTSKNQVVLTMTNMDPVDTATYYCARGWYYFDYWGHGTLVTVSS VL: DIVMTQTPLSLPVTPGEPASISCRASKSISKYLAWYQQKPGQAPRLLIYSGSTLQSGIPPRFSGSGYGTDFTLTINNIESEDAAYYFCQQHDESPYTFGEGTKVEIKR	15.4	76.3	15.1				
ADC-3 (KIH YR8/ZH3 conjugated to LD-14) (bispecific antibody, human IgG1, kappa, linker-drug LD-14 (eribulin) on cysteine sulfhydryls of reduced disulfides; average DAR between 3.7 and 4.3) heavy 1: not shown light 1: EIVLTQSPATLSLSPGERATLSCSASSQVSYIHWYQQKPGQAPRPWIYETSKLASGIPARFSGSGSGTDYTLTISSLEPEDFAVYYCQQWNYPLITFGQGTKLEIKRTVAAPSVFIFPPSDEQLKSGTASVVCLLNNFYPREAKVQWKVDNALQSGNSQESVTEQDSKDSTYSLSSTLTLSKADYEKHKVYACEVTHQGLSSPVTKSFNRGEC heavy 2: not shown light 2: DIQMTQSPSAMSASVGDRVTITCKASQDIYSYLSWFQQKPGKVPKTLIYRANRLVRGVPSRFSGSGSGQEYTLTISSLQPEDMATYYCLQYDEFPYTFGQGTKLEIKRTVAAPSVFIFPPSDEQLKSGTASVVCLLNNFYPREAKVQWKVDNALQSGNSQESVTEQDSKDSTYSLSSTLTLSKADYEKHKVYACEVTHQGLSSPVTKSFNRGEC	0.014	0.018	0.032				
ADC-4 (KIH YR8/ZH3 conjugated to LD-1) (bispecific antibody, human IgG1, kappa, linker-drug LD-1 (MMAE) on cysteine sulfhydryls of reduced disulfides; average DAR between 3.7 and 4.3) heavy 1: not shown light 1: EIVLTQSPATLSLSPGERATLSCSASSQVSYIHWYQQKPGQAPRPWIYETSKLASGIPARFSGSGSGTDYTLTISSLEPEDFAVYYCQQWNYPLITFGQGTKLEIKRTVAAPSVFIFPPSDEQLKSGTASVVCLLNNFYPREAKVQWKVDNALQSGNSQESVTEQDSKDSTYSLSSTLTLSKADYEKHKVYACEVTHQGLSSPVTKSFNRGEC heavy 2: not shown light 2: DIQMTQSPSAMSASVGDRVTITCKASQDIYSYLSWFQQKPGKVPKTLIYRANRLVRGVPSRFSGSGSGQEYTLTISSLQPEDMATYYCLQYDEFPYTFGQGTKLEIKRTVAAPSVFIFPPSDEQLKSGTASVVCLLNNFYPREAKVQWKVDNALQSGNSQESVTEQDSKDSTYSLSSTLTLSKADYEKHKVYACEVTHQGLSSPVTKSFNRGEC	1.2	46.6	4.2				

Source: patent publication EP4696329A1 (BioRay Pharmaceutical Co., Ltd., dated 2024)
